Consider 1 molecule from patent US8840886B2, “Method of treating cancer with DLL4 antagonist and chemotherapeutic agent” (Regeneron Pharmaceuticals, Inc., priority 2009, dated 2014).

Format in all cases: in vivo, mouse
One assay relates to human HCT116 tumor cells. As to the kind of experiment: HCT116 xenograft tumor growth, REGN421 with irinotecan (Example 6). To be noted: REGN421 2 mg/kg sc (6 mg/kg total dose). The procedure: Each mouse was implanted subcutaneously (sc) with 5×10^6 human HCT116 tumor cells. After the tumors were established in the mice (tumor size of ˜150 mm^3, 15 days after implantation), tumors were measured and randomized. The mice were then treated with hFc, REGN421, irinotecan or combination of REGN421 and irinotecan. A total of 30 mice were divided into 6 groups (n=5 per cohort). The first group was treated sc with hFc at 2 mg/kg; the second group was treated sc with REGN421 at 2 mg/kg; the third and fourth groups were treated ip with irinotecan at 7.5 and 25 mg/kg, respectively; the fifth group was treated sc with REGN421 at 2 mg/kg and ip with irinotecan at 7.5 mg/kg; and the sixth group was treated sc with REGN421 at 2 mg/kg and ip with irinotecan at 25 mg/kg. REGN421 was administered every 3-4 days starting on day 15 and mice received three doses total. Irinotecan was administered every 3-4 days starting on day 15 and mice received three doses total.
To assess the effects of REGN421 and irinotecan as single agents or in combination treatments, the changes in tumor size (volume) are measured, starting three days before the initial REGN421 treatment, and then on the day of each agent treatment (days 15, 19, 22) and thereafter every 3-4 days until tumors reach ˜600 mm^3 in size. In vivo tumor size is calculated using the formula (length×width^2)/2.

Assay [1] deals with human VM-Cub1 tumor cells (bladder carcinoma cells). The assay is described as follows: VM-Cub1 bladder carcinoma xenograft tumor growth, REGN421 with cisplatin (Example 1). To be noted: for TGI: 3 doses, at day 32; for Euthanized: control cohort euthanized day 32; for TGD: time to 600 mm^3 vs control. The procedure: The effect of anti-Dll4 antibody (REGN421) in combination with cisplatin (platinol, cis-diamminedichloroplatinum) on tumor growth was evaluated on tumors implanted in Severe Combined Immunodeficiency (SCID) mice expressing a humanized Dll4 protein (humanized Dll4 SCID mice). The humanized Dll4 SCID mouse was made by replacing the entire extracellular domain of the mouse Dll4 gene with the corresponding extracellular region of the human Dll4 gene (7 kb) in embryonic stem (ES) cells. Homozygous hDll4 mice were generated and bred into SCID background.
Each mouse was implanted subcutaneously (sc) with 1×10^6 human VM-Cub1 tumor cells (bladder carcinoma cells) plus MATRIGEL™ (BD Biosciences, #354234). After the tumors were established in the mice (tumor size of 150-200 mm^3, approximately 14 days after implantation), tumors were measured, randomized and treated with hFc, REGN421, cisplatin, or combination of REGN421 and cisplatin. A total of 45 mice were divided into nine groups (n=5 per cohort). The first group was treated subcutaneously (sc) with hFc at 2 mg/kg; the second and third groups were treated sc with REGN421 at 0.5 and 2 mg/kg, respectively; the fourth and fifth groups were treated intraperitoneally (ip) with cisplatin at 0.5 and 2 mg/kg, respectively; the sixth group was treated sc with REGN421 at 0.5 mg/kg and ip with cisplatin at 0.5 mg/kg; the seventh group was treated sc with REGN421 at 0.5 mg/kg and ip with cisplatin at 2 mg/kg; the eighth group was treated sc with REGN421 at 2 mg/kg and ip with cisplatin at 0.5 mg/kg; and the ninth group was treated sc with REGN421 at 2 mg/kg and ip with cisplatin at 2 mg/kg. REGN421 was administered every 3-4 days starting on day 14 and mice received three doses total. Cisplatin was administered every 24 hours starting on day 14; mice received four doses total.
To assess the effects of REGN421 and cisplatin as single agents or in combination treatments, the changes in tumor size were recorded. Tumor growth was measured three days before the initial REGN421 treatment, on the day of each REGN421 treatment (days 14, 17 and 21) and thereafter every 3-4 days until tumors reached ˜600 mm^3 in size. In vivo tumor size was calculated using the formula (length×width^2)/2 (FIG. 1 and Table 1).
Tumor Growth Inhibition, TGI, was determined by calculating the difference in tumor size for treated (T) versus vehicle control (C) tumor at the day the control cohort was euthanized (i.e., at day 32); TGI=[1−(Tfinal−Tinitial)/(Cfinal−Cinitial)]×100.
Tumor growth delay, TGD, was assessed as the difference in days between treated (T) versus control (C) tumors when each cohort reached a specified tumor size. The predetermined tumor size for this experiment was 600 mm^3.

For assay [2], the system named is human A549 tumor cells (non-small cell lung cancer). The assay is described as follows: A549 NSCLC xenograft tumor growth, REGN421 with cisplatin (Example 2). To be noted: REGN421 2 mg/kg sc (6 mg/kg total dose). The procedure: The effect of REGN421 in combination with cisplatin on tumor growth was evaluated on tumors implanted in humanized Dll4 SCID mice, as described above. Each mouse was implanted subcutaneously (sc) with 5×10^6 human A549 tumor cells (non-small cell lung cancer or “NSCLC”). After the tumors were established in the mice (tumor size of 100-150 mm^3, approximately 29 days after implantation), tumors were measured, randomized and treated with hFc, REGN421, cisplatin or combination of REGN421 and cisplatin. A total of 36 mice were divided into 6 groups (n=6 per cohort). The first group was treated sc with hFc at 2 mg/kg; the second group was treated sc with REGN421 at 2 mg/kg; the third and fourth groups were treated ip with cisplatin at 2.5 and 4.5 mg/kg, respectively; the fifth group was treated sc with REGN421 at 2 mg/kg and ip with cisplatin at 2.5 mg/kg; and the sixth group was treated sc with REGN421 at 2 mg/kg and ip with cisplatin at 4.5 mg/kg. REGN421 was administered every 3-4 days starting on day 29 and mice received three doses total. Cisplatin was administered every 24 hours starting on day 29 and mice received two doses total.
To assess the effects of REGN421 and cisplatin as single agents or in combination we measured tumor size (volume), beginning three days before the initial REGN421 treatment, on the day of each agent treatment (days 29, 30, 33, 36) and thereafter every 3-4 days until tumors reached ˜600 mm^3 in size. In vivo tumor size was calculated using the formula (length×width^2)/2.

B1: REGN421: anti-hDll4 antibody comprising HCVR/LCVR combination of SEQ ID NO:116/118 (antibody, V domains shown)
VH: QVQLVESGGGVVQPGRSLRLSCAASGFTFSSYGMHWVRQAPGKGLEWVSFLWYDGTNKNYVESVKGRFTISRDNSKNMLYLEMNSLRAEDTAVYYCARDHDFRSGYEGWFDPWGQGTLVTVSS
VL: EIVLTQSPATLSLSPGERATLSCRASQSVSSYLAWYQQKPGQAPRLLIYDASNRATGIPARFSGSGSGTDFTLTISSLEPEDFAVYYCQHRSNWPPTFGGGTKVEIK
Regarding B1, the TGD in the assay on human HCT116 tumor cells is 9 days; in assay [1] (REGN421 0.5 mg/kg/dose sc) it was 0 days; in assay [1] (REGN421 2 mg/kg/dose sc) it was 12 days; in assay [2], 8 days. The TGI in assay [1] (REGN421 0.5 mg/kg/dose sc) is −13.7%; in assay [1] (REGN421 2 mg/kg/dose sc), 83.1%. The figures for the Euthanized in assay [1] (REGN421 0.5 mg/kg/dose sc) and in assay [1] (REGN421 2 mg/kg/dose sc) were 32 days and 44 days, respectively.
